Patent publication US20080227128

Assays:
MEK substrate (MEKSBS) = test system: T1, MEK substrate (MEKSBS)
T1 sequence: XDPDHDHTGFLTEYVATRW

KPLGSDDSLADY peptide = test system: T2, KPLGSDDSLADY peptide
T2 sequence: KPLGSDDSLADY

## purified MEK
MEK substrate (MEKSBS)
  phosphorylation in an in vitro kinase assay: are both phosphorylated in the presence of purified MEK in an in vitro kinase assay
KPLGSDDSLADY peptide
  phosphorylation in an in vitro kinase assay: are both phosphorylated in the presence of purified MEK in an in vitro kinase assay
